Target: myosin VI (mouse (endogenous in mouse brain)) (UniProt Q64331)
Assay: co-IP

Chain of UniProt Q64331 (Q64331 whole entry): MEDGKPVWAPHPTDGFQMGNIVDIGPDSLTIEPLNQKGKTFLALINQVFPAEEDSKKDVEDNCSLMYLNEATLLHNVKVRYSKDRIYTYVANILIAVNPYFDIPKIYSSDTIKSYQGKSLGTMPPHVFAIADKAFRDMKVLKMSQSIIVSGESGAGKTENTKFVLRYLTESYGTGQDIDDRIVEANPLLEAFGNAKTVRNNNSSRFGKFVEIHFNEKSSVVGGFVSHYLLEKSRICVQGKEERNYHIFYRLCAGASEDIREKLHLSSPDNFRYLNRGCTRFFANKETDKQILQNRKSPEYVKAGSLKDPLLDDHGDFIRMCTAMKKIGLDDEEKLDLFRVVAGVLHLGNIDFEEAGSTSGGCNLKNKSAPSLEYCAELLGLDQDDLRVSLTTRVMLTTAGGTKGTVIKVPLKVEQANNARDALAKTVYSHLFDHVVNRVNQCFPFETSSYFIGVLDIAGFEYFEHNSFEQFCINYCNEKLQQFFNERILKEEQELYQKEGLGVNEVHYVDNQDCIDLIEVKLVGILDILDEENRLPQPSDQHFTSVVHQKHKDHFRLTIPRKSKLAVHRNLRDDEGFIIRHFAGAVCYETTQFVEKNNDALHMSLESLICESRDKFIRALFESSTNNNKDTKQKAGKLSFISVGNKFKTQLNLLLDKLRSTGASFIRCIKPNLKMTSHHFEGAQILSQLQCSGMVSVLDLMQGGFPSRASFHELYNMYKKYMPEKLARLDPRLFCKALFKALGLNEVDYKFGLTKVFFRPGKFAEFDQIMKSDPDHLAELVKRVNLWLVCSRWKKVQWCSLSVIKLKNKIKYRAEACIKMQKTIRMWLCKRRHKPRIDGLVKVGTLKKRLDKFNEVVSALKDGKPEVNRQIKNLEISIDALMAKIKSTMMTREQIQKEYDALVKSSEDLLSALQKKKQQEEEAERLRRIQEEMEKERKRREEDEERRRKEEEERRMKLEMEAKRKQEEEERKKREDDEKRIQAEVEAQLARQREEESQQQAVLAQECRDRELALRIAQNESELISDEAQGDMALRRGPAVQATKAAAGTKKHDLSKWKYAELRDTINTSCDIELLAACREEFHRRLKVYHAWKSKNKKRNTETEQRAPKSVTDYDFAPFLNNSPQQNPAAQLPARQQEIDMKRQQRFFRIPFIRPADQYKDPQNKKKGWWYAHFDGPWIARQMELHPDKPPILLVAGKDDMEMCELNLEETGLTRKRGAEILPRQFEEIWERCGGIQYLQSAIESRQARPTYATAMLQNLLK

DIC coprecipitation normalized to myosin VI immunoprecipitation (wt lysate): 1.44
Substance: dynein intermediate chain (from UniProt O88485 1-628) (natural protein)

Reference: publication PMC8099778
